According to patent US20250262210A1 (TRUSTEES OF COLUMBIA UNIVERSITY IN THE CITY OF NEW YORK, published 2025):

Columns and labels:
[1] = target: T1, FHOD1 (human, UniProt Q9Y613 2-1164); assay: IP/MS, LZTR1 R810W-FLAG, U87
T1 sequence (looked up): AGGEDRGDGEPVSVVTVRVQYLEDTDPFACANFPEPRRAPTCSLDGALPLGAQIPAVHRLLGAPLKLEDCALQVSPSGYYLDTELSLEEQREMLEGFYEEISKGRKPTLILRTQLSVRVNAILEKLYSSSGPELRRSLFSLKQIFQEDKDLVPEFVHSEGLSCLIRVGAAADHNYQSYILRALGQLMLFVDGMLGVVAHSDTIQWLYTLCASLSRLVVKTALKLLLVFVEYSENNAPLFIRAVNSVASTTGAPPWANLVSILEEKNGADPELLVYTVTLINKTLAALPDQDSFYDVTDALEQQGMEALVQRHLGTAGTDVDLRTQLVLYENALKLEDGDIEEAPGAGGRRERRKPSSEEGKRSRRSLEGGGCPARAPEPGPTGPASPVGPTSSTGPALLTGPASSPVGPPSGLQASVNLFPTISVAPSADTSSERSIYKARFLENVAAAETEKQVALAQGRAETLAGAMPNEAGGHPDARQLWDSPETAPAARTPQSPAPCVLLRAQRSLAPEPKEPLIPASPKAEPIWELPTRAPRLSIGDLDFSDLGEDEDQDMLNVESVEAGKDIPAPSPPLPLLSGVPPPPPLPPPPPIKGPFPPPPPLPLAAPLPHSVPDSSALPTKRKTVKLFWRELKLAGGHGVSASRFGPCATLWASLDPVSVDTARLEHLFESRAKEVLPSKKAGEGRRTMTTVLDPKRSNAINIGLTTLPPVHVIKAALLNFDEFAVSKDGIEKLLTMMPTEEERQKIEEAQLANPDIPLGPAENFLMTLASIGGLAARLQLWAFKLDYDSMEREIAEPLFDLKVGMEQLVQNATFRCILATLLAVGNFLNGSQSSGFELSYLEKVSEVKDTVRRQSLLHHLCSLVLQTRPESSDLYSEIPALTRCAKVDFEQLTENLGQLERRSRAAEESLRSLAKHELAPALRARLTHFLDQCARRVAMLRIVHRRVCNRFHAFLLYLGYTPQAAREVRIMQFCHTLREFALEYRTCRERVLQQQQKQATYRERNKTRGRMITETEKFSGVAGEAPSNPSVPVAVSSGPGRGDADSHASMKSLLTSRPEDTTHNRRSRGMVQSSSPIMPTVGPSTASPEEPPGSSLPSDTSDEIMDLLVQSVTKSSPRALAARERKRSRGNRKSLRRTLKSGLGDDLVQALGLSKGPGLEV
Method in brief: (§1)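 Gel slices were reduced with 5 mM DTT, alkylated with 11 mM IAA and digested overnight at 37° C. with trypsin. Peptides were analysed on an Orbitrap Fusion Tribrid by LC-MS/MS.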

[2] = target: KDM5C (human, UniProt P41229 1-1560, limits assumed); assay: IP/MS, LZTR1 R810W-FLAG, U87
Method in brief: as §1

Sequence of KDM5C (P41229 whole entry): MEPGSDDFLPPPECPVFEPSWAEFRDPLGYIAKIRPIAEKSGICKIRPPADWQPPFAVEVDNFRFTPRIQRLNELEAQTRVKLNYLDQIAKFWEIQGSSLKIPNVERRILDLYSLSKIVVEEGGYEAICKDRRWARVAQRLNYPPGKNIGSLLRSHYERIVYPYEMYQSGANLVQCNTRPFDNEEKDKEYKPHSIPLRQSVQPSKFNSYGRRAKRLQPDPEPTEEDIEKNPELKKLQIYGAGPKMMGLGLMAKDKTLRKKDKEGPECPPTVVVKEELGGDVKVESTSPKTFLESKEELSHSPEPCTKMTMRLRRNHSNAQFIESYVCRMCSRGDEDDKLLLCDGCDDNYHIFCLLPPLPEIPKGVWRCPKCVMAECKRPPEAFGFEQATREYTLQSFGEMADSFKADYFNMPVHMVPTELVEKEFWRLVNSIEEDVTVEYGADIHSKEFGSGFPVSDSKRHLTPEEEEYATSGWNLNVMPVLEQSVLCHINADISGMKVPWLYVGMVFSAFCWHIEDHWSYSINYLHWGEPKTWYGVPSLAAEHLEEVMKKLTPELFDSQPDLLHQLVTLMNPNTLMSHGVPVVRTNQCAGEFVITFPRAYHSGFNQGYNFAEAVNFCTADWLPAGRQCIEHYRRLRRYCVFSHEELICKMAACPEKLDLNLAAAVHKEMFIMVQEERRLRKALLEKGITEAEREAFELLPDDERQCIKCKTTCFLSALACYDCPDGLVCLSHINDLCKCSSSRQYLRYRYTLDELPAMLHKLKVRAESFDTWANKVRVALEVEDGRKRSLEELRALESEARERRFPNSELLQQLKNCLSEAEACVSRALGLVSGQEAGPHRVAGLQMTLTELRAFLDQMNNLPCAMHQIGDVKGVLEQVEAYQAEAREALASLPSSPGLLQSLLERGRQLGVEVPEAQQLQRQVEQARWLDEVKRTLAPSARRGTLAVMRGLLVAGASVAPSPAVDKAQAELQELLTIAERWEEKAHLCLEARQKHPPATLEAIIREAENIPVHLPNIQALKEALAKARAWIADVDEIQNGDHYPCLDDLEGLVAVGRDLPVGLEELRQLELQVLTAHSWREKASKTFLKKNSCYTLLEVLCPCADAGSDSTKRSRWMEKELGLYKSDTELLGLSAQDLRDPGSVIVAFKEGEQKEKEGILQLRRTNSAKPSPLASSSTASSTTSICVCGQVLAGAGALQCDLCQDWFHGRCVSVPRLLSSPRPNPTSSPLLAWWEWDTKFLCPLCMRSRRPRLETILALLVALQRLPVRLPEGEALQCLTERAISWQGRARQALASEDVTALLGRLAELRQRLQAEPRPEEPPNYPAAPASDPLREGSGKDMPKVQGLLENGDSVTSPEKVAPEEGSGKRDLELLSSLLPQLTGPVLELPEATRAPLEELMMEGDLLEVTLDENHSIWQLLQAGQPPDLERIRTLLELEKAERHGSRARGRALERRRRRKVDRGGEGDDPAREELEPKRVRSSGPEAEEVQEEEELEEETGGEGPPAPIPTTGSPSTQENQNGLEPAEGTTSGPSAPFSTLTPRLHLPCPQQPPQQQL

B1: LZTR1 R810W-FLAG (other, human, UniProt Q8N653 1-840, looked up)
chain: MAGPGSTGGQIGAAALAGGARSKVAPSVDFDHSCSDSVEYLTLNFGPFETVHRWRRLPPCDEFVGARRSKHTVVAYKDAIYVFGGDNGKTMLNDLLRFDVKDCSWCRAFTTGTPPAPRYHHSAVVYGSSMFVFGGYTGDIYSNSNLKNKNDLFEYKFATGQWTEWKIEGRLPVARSAHGATVYSDKLWIFAGYDGNARLNDMWTIGLQDRELTCWEEVAQSGEIPPSCCNFPVAVCRDKMFVFSGQSGAKITNNLFQFEFKDKTWTRIPTEHLLRGSPPPPQRRYGHTMVAFDRHLYVFGGAADNTLPNELHCYDVDFQTWEVVQPSSDSEVGGAEVPERACASEEVPTLTYEERVGFKKSRDVFGLDFGTTSAKQPTQPASELPSGRLFHAAAVISDAMYIFGGTVDNNIRSGEMYRFQFSCYPKCTLHEDYGRLWESRQFCDVEFVLGEKEECVQGHVAIVTARSRWLRRKITQARERLAQKLEQEAAPVPREAPGVAAGGARPPLLHVAIREAEARPFEVLMQFLYTDKIKYPRKGHVEDVLLIMDVYKLALSFQLCRLEQLCRQYIEASVDLQNVLVVCESAARLQLSQLKEHCLNFVVKESHFNQVIMMKEFERLSSPLIVEIVRRKQQPPPRTPLDQPVDIGTSLIQDMKAYLEGAGAEFCDITLLLDGHPRPAHKAILAARSSYFEAMFRSFMPEDGQVNISIGEMVPSRQAFESMLRYIYYGEVNMPPEDSLYLFAAPYYYGFYNNRLQAYCKQNLEMNVTVQNVLQILEAADKTQALDMKRHCLHIIVHQFTKVSKLPTLWSLSQQLLLDIIDSLASHISDKQCAELGADI
notes: Stably expressed in U87 cells by lentivirus; also called LZTR1-FLAG-R810W; LZTR1 RW; not shown: FLAG tag
- binding result [1]: binds
- binding result [2]: binds
